From paper PMC10208570, “Peptidomimetic antibiotics disrupt the lipopolysaccharide transport bridge of drug-resistant Enterobacteriaceae” (Science Advances, 2023)

Molecular target: LptAm^Q62L (E. coli) (E. coli (ATCC 25922))
Assay: fluorescence polarisation; indirect (competition) assay: unlabeled peptide or protein serially diluted into a 1:1 mixture of Lpt protein and 6-FL (2x stock 70 nM); 50 mM Na-Pi pH 7, 150 mM NaCl, 0.05% Tween 20; incubated overnight at 4°C, read at 25°C; triplicates; Ki from IC50 by Cheng-Prusoff

B1: mLptA (E. coli), LptA(25-185) E39V M47A R76A (domain or fragment)
chain: GAFAVTGDTDQPIHIVSDQQSLDAQGNVVTFTGNVIVTQGTIKINADKVVVTAPGGEQGKEVIDGYGKPATFYQMQDNGKPVEGHASQMHYELAKDFVVLTGNAYLQQVDSNIKGDKITYLVKEQKMQAFSDKGKRVTTVLVPSQLQDKNNKGQTPAQKKGN
Ki: 69 nM
